Data taken from paper PMC3882260, “Defining the Ligand Specificity of the Deleted in Colorectal Cancer (DCC) Receptor” (PLoS ONE, 2014).

Molecular target: T1, extracellular domain of human DCC (M1-N1097) with a C-terminal Fc tag (human, UniProt P43146 26-1097)
T1 construct: signal peptide in the construct; Deleted in Colorectal Cancer (DCC), human, extracellular domain, amino acids 1-1097; On the array it was loaded on protein-A microbeads 1:1 with Cy5-labeled human IgG; in SPR it was amine-coupled to the chip; also called DCC-Fc; source: CHO cells, transient transfection, purified (protein A-Sepharose, gel filtration); not shown: Fc (human IgG), C-terminal, kept
Assay: peptide or protein array; DCC-Fc mixed 1:1 with Cy5-labeled hIgG on multivalent protein-A microbeads, incubated with extracellular protein microarrays (Library 1: 1,334 samples; Library 2: 624 samples) on epoxysilane slides; washed with PBS-T; Cy5 fluorescence; two replicate screens
Conditions: both partners purified

T1 sequence (P43146 26-1097): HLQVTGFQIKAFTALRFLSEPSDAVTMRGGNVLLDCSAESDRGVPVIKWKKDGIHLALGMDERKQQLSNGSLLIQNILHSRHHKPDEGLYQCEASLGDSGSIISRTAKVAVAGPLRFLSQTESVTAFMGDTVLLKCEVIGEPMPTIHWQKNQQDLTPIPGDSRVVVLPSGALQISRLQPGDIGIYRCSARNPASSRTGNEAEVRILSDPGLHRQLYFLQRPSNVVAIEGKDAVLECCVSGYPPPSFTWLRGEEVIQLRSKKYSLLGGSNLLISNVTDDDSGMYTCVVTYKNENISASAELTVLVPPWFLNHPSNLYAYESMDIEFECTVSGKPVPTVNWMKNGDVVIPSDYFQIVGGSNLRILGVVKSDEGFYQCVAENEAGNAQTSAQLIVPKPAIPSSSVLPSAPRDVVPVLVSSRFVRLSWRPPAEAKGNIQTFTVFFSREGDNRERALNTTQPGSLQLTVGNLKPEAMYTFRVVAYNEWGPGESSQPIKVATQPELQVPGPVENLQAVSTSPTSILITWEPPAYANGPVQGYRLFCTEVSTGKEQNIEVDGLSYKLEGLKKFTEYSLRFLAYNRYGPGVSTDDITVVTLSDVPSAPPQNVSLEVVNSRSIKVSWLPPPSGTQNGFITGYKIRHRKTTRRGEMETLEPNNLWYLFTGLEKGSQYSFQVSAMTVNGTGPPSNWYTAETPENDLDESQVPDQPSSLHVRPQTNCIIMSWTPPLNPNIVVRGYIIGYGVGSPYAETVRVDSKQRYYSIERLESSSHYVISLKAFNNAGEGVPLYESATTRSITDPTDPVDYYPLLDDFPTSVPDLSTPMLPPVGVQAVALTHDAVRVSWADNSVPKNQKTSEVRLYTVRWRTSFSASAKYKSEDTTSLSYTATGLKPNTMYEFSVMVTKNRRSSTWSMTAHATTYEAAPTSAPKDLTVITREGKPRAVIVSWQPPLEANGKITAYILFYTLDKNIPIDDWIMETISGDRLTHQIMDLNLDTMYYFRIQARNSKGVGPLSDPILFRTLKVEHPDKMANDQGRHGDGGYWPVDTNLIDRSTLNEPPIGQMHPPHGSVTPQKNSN

binding result: binds
B1: full length CBLN4 C-terminal His (ligand, human, UniProt Q9NTU7 28-201, looked up)
chain: QNDTEPIVLEGKCLVVCDSNPATDSKGSSSSPLGISVRAANSKVAFSAVRSTNHEPSEMSNKTRIIYFDQILVNVGNFFTLESVFVAPRKGIYSFSFHVIKVYQSQTIQVNLMLNGKPVISAFAGDKDVTREAATNGVLLYLDKEDKVYLKLEKGNLVGGWQYSTFSGFLVFPL
notes: Cerebellin 4 (CBLN4), full length; also called CBLN4-His
